For 120 sequences, switch fluorescence ratio results are on record in the supplement of paper PMC10126150.

± gives the standard deviation of the averaged measurements.

In this series the test system is ATP. In words: switch fluorescence ratio, 500 uM ATP over buffer (Cy3 cluster intensity, sum of 5 cycles each) (fold (ratio)); higher = stronger signal-on switching upon ATP binding; sequences stand for … in TCGTCGGCAGCGTCAGATGTGTATAAGAGACAGTTTTTTTTTTTTTTTTTTTTTTTTT…TC. The conditions noted are these: aptamer strand: ATP DNA aptamer (quencher-CACCTGGGGGAGTATTGCGGAGGAAGG + anchor), 100 nM annealed; ATP concentration: 500 uM. Summed up:
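Between each of five buffer/ATP cycles, the flow-cell was stripped with NaOH and re-annealed. Each cycle imaged Cy3-labelled switching-strand clusters, annealed to 100 nM quencher-labelled ATP aptamer on a modified Illumina MiSeq flow-cell, first in selection buffer and then after 15 min with 500 uM ATP at 22 °C. The fluorescence ratio is summed target-cycle over summed buffer-cycle Cy3 intensity per cluster, averaged per switch-domain sequence, with clusters outside 100-1000 RFU excluded.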
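Also: ATP exposure 15 min at 22 °C before imaging.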

As to GGATGATGCC, the switch fluorescence ratio amounted to 0.986 ± 0.033.

In the case of GGATGCAGAT, the switch fluorescence ratio amounted to 0.997 ± 0.0094.

Regarding GGATGCAGGA, the switch fluorescence ratio came out at 1.04 ± 0.042.

Consider GGATGCCAGT, for which the switch fluorescence ratio was 0.998 ± 0.013.

In the case of GGATGCTAGA, the switch fluorescence ratio was 0.996 ± 0.024.

With GGATGCTGGG, the switch fluorescence ratio worked out at 1 ± 0.015.

As for GGATGCTTGT, the switch fluorescence ratio was found to be 1.009 ± 0.0092.

Take GGATGGGCAA: the switch fluorescence ratio stood at 1.026 ± 0.0026.

On to GGATGGGGAG, for which the switch fluorescence ratio came out at 0.971 ± 0.02.

Consider GGATGGGTAA, for which the switch fluorescence ratio was found to be 1.01 ± 0.039.

On to GGATGGGTTT, for which the switch fluorescence ratio came to 1 ± 0.016.

In the case of GGATGGTAGC, the switch fluorescence ratio was determined as 1.01 ± 0.013.

Regarding GGATGGTGAG, the switch fluorescence ratio is 0.972 ± 0.011.

With GGATGGTGTG, the switch fluorescence ratio was determined as 0.977 ± 0.037.

For the sequence GGATGTATAA, the switch fluorescence ratio is 1.01 ± 0.028.

Take GGATGTGAAA: the switch fluorescence ratio was found to be 0.9851 ± 0.0046.

For GGATGTTTCG, the switch fluorescence ratio was 1.02 ± 0.02.

As to GGATTAAAAT, the switch fluorescence ratio came to 0.997 ± 0.028.

On to GGATTAAATC, for which the switch fluorescence ratio is 1.001 ± 0.0086.

With GGATTAATCA, the switch fluorescence ratio amounted to 1.01 ± 0.035.

Turning to GGATTAATGT, the switch fluorescence ratio amounted to 0.971 ± 0.022.

As to GGATTAATTG, the switch fluorescence ratio amounted to 0.996 ± 0.037.

Turning to GGATTACCCA, the switch fluorescence ratio came out at 1.04 ± 0.021.

Turning to GGATTACCCT, the switch fluorescence ratio amounted to 1.04 ± 0.015.

Consider GGATTACGTA, for which the switch fluorescence ratio is 1.04 ± 0.059.

For GGATTAGCAG, the switch fluorescence ratio was found to be 1.034 ± 0.0075.

With GGATTAGGCG, the switch fluorescence ratio was 0.981 ± 0.018.

Turning to GGATTAGTGC, the switch fluorescence ratio amounted to 1.06 ± 0.039.

GGATTATGTA: the switch fluorescence ratio amounted to 0.999 ± 0.026.

Regarding GGATTATTG, the switch fluorescence ratio was 0.98 ± 0.032.

Consider GGATTATTTG, for which the switch fluorescence ratio came to 0.97982 ± 7.7e-05.

For GGATTCGATT, the switch fluorescence ratio came out at 0.987 ± 0.03.

As to GGATTCTTGG, the switch fluorescence ratio is 0.977 ± 0.024.

GGATTGCGG: the switch fluorescence ratio is 1.008 ± 0.01.

Take GGATTGGACT: the switch fluorescence ratio was 1 ± 0.019.

For the sequence GGATTGGGTT, the switch fluorescence ratio stood at 1.04 ± 0.069.

Regarding GGATTGTTTT, the switch fluorescence ratio is 0.996 ± 0.023.

Turning to GGATTTATTT, the switch fluorescence ratio was 1.06 ± 0.026.

For GGATTTGATG, the switch fluorescence ratio stood at 1 ± 0.031.

As for GGATTTTCAC, the switch fluorescence ratio worked out at 1 ± 0.03.

Regarding GGATTTTGGA, the switch fluorescence ratio is 1 ± 0.018.

As for GGATTTTGTG, the switch fluorescence ratio was found to be 0.994 ± 0.021.

Consider GGATTTTTTG, for which the switch fluorescence ratio was 0.983 ± 0.021.

As to GGCAAAAATT, the switch fluorescence ratio stood at 1.01 ± 0.017.

Turning to GGCAAAACAG, the switch fluorescence ratio was determined as 0.996 ± 0.032.

Consider GGCAAATTTT, for which the switch fluorescence ratio was found to be 1.02 ± 0.036.

Turning to GGCAATATGG, the switch fluorescence ratio was 1.229 ± 0.011.

As to GGCAATCACC, the switch fluorescence ratio is 1.402 ± 0.0063.

Regarding GGCAATTATT, the switch fluorescence ratio is 1.02 ± 0.026.

As for GGCACCTACG, the switch fluorescence ratio is 1.53 ± 0.14.

Consider GGCACGATGG, for which the switch fluorescence ratio is 1 ± 0.035.

With GGCACTATAA, the switch fluorescence ratio is 1.03 ± 0.023.

Take GGCAGAATGA: the switch fluorescence ratio worked out at 1 ± 0.018.

For the sequence GGCAGACTTC, the switch fluorescence ratio came to 1.02 ± 0.041.

In the case of GGCAGAGGCT, the switch fluorescence ratio was 1.03 ± 0.031.

As to GGCAGGGGAT, the switch fluorescence ratio came out at 1.33 ± 0.6.

Turning to GGCAGGGGGT, the switch fluorescence ratio is 1.04 ± 0.088.

For the sequence GGCAGGGGTT, the switch fluorescence ratio worked out at 1 ± 0.023.

For the sequence GGCAGGGTTT, the switch fluorescence ratio stood at 0.99 ± 0.037.

For the sequence GGCAGTAAGA, the switch fluorescence ratio stood at 1.03 ± 0.024.

As for GGCAGTCGTA, the switch fluorescence ratio amounted to 0.955 ± 0.081.

For the sequence GGCAGTGTAC, the switch fluorescence ratio was determined as 1.18 ± 0.12.

GGCAGTGTGC: the switch fluorescence ratio is 0.99 ± 0.022.

As for GGCAGTTGCT, the switch fluorescence ratio amounted to 0.9882 ± 0.0056.

Regarding GGCAGTTTTG, the switch fluorescence ratio amounted to 1.01 ± 0.0062.

For GGCATAACAC, the switch fluorescence ratio was determined as 1.093 ± 0.0088.

As for GGCATACGTT, the switch fluorescence ratio stood at 0.994 ± 0.026.

GGCATCGTAA: the switch fluorescence ratio stood at 1.01 ± 0.025.

For GGCATGTGGT, the switch fluorescence ratio was found to be 1.0254 ± 0.001.

Consider GGCATTCGAT, for which the switch fluorescence ratio stood at 0.981 ± 0.03.

With GGCATTTCTA, the switch fluorescence ratio is 1.04 ± 0.018.

For GGCATTTGGA, the switch fluorescence ratio came to 0.98 ± 0.035.

As to GGCCAACCCG, the switch fluorescence ratio amounted to 1.0157 ± 0.00094.

Take GGCCAAGGAA: the switch fluorescence ratio was 0.9812 ± 0.0074.

For the sequence GGCCAAGGGG, the switch fluorescence ratio was found to be 1.04 ± 0.027.

As to GGCCAGTTTG, the switch fluorescence ratio came out at 0.986 ± 0.018.

Regarding GGCCCATAGC, the switch fluorescence ratio was 0.986 ± 0.018.

As for GGCCCCGGGT, the switch fluorescence ratio is 1.18 ± 0.057.

GGCCCGTTAC: the switch fluorescence ratio came out at 1.63 ± 0.2.

Regarding GGCCCTAAGT, the switch fluorescence ratio was 0.976 ± 0.026.

With GGCCCTTCGG, the switch fluorescence ratio is 0.9987 ± 0.0091.

Regarding GGCCGACAGC, the switch fluorescence ratio worked out at 1.03 ± 0.032.

Regarding GGCCGATGCA, the switch fluorescence ratio came out at 1.02 ± 0.021.

With GGCCGCGCTG, the switch fluorescence ratio is 1.04 ± 0.016.

As to GGCCGGAATT, the switch fluorescence ratio amounted to 1.17 ± 0.19.

Consider GGCCGGACAT, for which the switch fluorescence ratio was found to be 0.9674 ± 0.0089.

On to GGCCGGGGCT, for which the switch fluorescence ratio amounted to 1.01 ± 0.026.

For the sequence GGCCGGGGTA, the switch fluorescence ratio stood at 1 ± 0.046.

Take GGCCGGGTTA: the switch fluorescence ratio was found to be 1.01 ± 0.042.

As to GGCCGGTAAA, the switch fluorescence ratio came to 1 ± 0.051.

Regarding GGCCGTGGGC, the switch fluorescence ratio is 1 ± 0.043.

For GGCCGTTGGG, the switch fluorescence ratio stood at 0.965 ± 0.016.

With GGCCTAGGGA, the switch fluorescence ratio was found to be 1.01 ± 0.056.

Regarding GGCCTCTTTT, the switch fluorescence ratio came to 0.966 ± 0.039.

GGCCTTTTGA: the switch fluorescence ratio amounted to 0.997 ± 0.015.

On to GGCGAAATGG, for which the switch fluorescence ratio is 1.06 ± 0.059.

As to GGCGAAGGGT, the switch fluorescence ratio came to 0.98 ± 0.012.

For GGCGAAGTTC, the switch fluorescence ratio came to 0.99 ± 0.021.

With GGCGAGGGGC, the switch fluorescence ratio amounted to 1.01 ± 0.036.

GGCGATGCGC: the switch fluorescence ratio stood at 1.03 ± 0.018.

Take GGCGATGTAT: the switch fluorescence ratio came out at 0.967 ± 0.0097.

Take GGCGCACGGG: the switch fluorescence ratio worked out at 1.02 ± 0.026.

As to GGCGCATTAT, the switch fluorescence ratio was determined as 1.66 ± 0.061.

Turning to GGCGGAGTGC, the switch fluorescence ratio came out at 1.01 ± 0.027.

On to GGCGGATCAG, for which the switch fluorescence ratio was found to be 0.9827 ± 0.0023.

As for GGCGGATGGA, the switch fluorescence ratio was 1.01 ± 0.037.

As for GGCGGATGGG, the switch fluorescence ratio came out at 1.02 ± 0.026.

Turning to GGCGGCAAAA, the switch fluorescence ratio is 1.07 ± 0.042.

Consider GGCGGGCATG, for which the switch fluorescence ratio was 1.021 ± 0.0011.

As for GGCGGGGGAA, the switch fluorescence ratio is 1.01 ± 0.059.

GGCGGGGGCG: the switch fluorescence ratio is 1.07 ± 0.024.

Regarding GGCGGGGTGG, the switch fluorescence ratio came to 1.09 ± 0.12.

Regarding GGCGGGGTTG, the switch fluorescence ratio was found to be 0.996 ± 0.019.

Take GGCGGGTAAT: the switch fluorescence ratio was determined as 1.04 ± 0.09.

For the sequence GGCGGGTGCG, the switch fluorescence ratio worked out at 0.984 ± 0.028.

GGCGGTAAGA: the switch fluorescence ratio was 1 ± 0.051.

Turning to GGCGGTATAA, the switch fluorescence ratio is 1.01 ± 0.025.

For GGCGGTATGG, the switch fluorescence ratio worked out at 1.01 ± 0.026.

Take GGCGGTGGCA: the switch fluorescence ratio was 1.01 ± 0.026.

On to GGCGGTTTGT, for which the switch fluorescence ratio came out at 1 ± 0.028.
